Measurements: the Human Domainome abundance scans (Beltran et al. 2025)
± gives the uncertainty stated by the source.

B1: E3 ubiquitin-protein ligase NEDD4, residues 836 to 881; numbered along this chain, P46934 (parent)
chain: EIEQGFLPKGWEVRHAPNGRPFFIDHNTKTTTWEDPRLKIPAHLRG

Variants of: B1
Experiment: abundance fitness (aPCA) (normalised: wild type 0, dead -1); higher = more abundant; growth selection in yeast, the domain comes from the species named
Details: Homo sapiens

Variant	abundance fitness
T28Y	-0.548 ± 0.12
K39D	-0.241 ± 0.086
K39C	0.32 ± 0.072
K39A	-0.085 ± 0.046
E34K	-0.369 ± 0.11
E34H	-0.172 ± 0.041
E34S	-0.163 ± 0.039
E34Q	-0.345 ± 0.11
E34R	-0.307 ± 0.034
E34V	-0.169 ± 0.047
E34A	-0.182 ± 0.054
E34P	-1.08 ± 0.24
E34L	-0.155 ± 0.053
E34W	-0.306 ± 0.049
E34Y	-0.272 ± 0.077
E34D	-0.312 ± 0.11
E34C	-0.268 ± 0.071
E34M	-0.054 ± 0.075
E34G	-0.51 ± 0.066
E34T	-0.37 ± 0.088
T31N	-0.727 ± 0.15
T31V	-0.185 ± 0.047
T31S	0.006 ± 0.042
T31W	-0.311 ± 0.071

Variant	abundance fitness
T31Q	-0.158 ± 0.13
T31G	-0.398 ± 0.036
T31P	-0.901 ± 0.081
T31M	-0.234 ± 0.052
T31E	-0.44 ± 0.083
T31A	-0.004 ± 0.044
T31F	-0.42 ± 0.085
T31L	-0.356 ± 0.035
T31K	-0.572 ± 0.12
T31D	-0.576 ± 0.11
T31Y	-0.511 ± 0.09
T31H	-0.578 ± 0.083
T31C	-0.064 ± 0.054
L38P	-0.072 ± 0.043
L38A	-0.103 ± 0.046
L38D	0.036 ± 0.056
L38W	-0.105 ± 0.062
L38K	-0.105 ± 0.085
L38R	-0.012 ± 0.033
L38I	-0.043 ± 0.062
L38E	-0.093 ± 0.068
L38G	-0.018 ± 0.034
L38N	-0.166 ± 0.084
L38Q	-0.091 ± 0.063

Variant	abundance fitness
L38V	-0.051 ± 0.041
L38Y	-0.435 ± 0.11
L38H	-0.292 ± 0.086
L38S	-0.019 ± 0.053
L38M	-0.066 ± 0.066
L38T	0.033 ± 0.07
T30S	-0.136 ± 0.051
T30F	-0.466 ± 0.033
T30Y	-0.818 ± 0.14
T30P	-0.961 ± 0.19
T30I	-0.056 ± 0.065
T30N	-0.566 ± 0.11
T30A	-0.368 ± 0.075
T30E	-0.206 ± 0.11
T30K	-0.133 ± 0.073
T30R	-0.2 ± 0.053
T30G	-0.595 ± 0.055
T30W	-1.38 ± 0.28
T30V	-0.202 ± 0.039
T30Q	-0.216 ± 0.058
T30D	-0.347 ± 0.085
T30H	0.276 ± 0.087
T30L	-0.297 ± 0.04
T30M	-0.206 ± 0.073

Variant	abundance fitness
R37G	-0.586 ± 0.042
R37E	-0.752 ± 0.17
R37L	-0.399 ± 0.076
R37F	-0.672 ± 0.14
R37V	-0.597 ± 0.044
R37S	-0.472 ± 0.049
R37Q	-0.665 ± 0.13
R37C	-0.611 ± 0.064
R37P	-0.867 ± 0.12
R37T	-0.256 ± 0.055
R37W	-0.812 ± 0.11
R37I	-0.75 ± 0.1
R37K	-0.758 ± 0.11
R37A	-0.567 ± 0.056
R37M	-0.364 ± 0.075
R37Y	-0.784 ± 0.076
R37H	-0.268 ± 0.072
W33S	-0.307 ± 0.041
W33C	-0.653 ± 0.13
W33E	-0.221 ± 0.067
W33D	-0.484 ± 0.13
W33K	-0.462 ± 0.09
W33R	-0.506 ± 0.047
W33V	-0.243 ± 0.05

Variant	abundance fitness
W33Q	-0.337 ± 0.045
W33F	-0.142 ± 0.066
W33A	-0.365 ± 0.056
W33N	-0.431 ± 0.055
W33L	-0.433 ± 0.062
W33G	-0.372 ± 0.047
T32K	-0.775 ± 0.046
T32R	-0.648 ± 0.044
T32W	-0.807 ± 0.097
T32M	-0.705 ± 0.1
T32I	-0.471 ± 0.14
T32G	-0.619 ± 0.078
T32L	-0.85 ± 0.1
T32C	-0.538 ± 0.12
T32S	-0.115 ± 0.05
T32V	-0.456 ± 0.085
T32D	-1.05 ± 0.28
T32Y	-0.564 ± 0.07
T32E	-0.655 ± 0.048
T32A	-0.779 ± 0.16
T32F	-0.574 ± 0.042
T32Q	0.038 ± 0.082
T32H	-0.033 ± 0.087
P36L	-1.01 ± 0.064

Variant	abundance fitness
P36W	-0.954 ± 0.13
P36F	-1.04 ± 0.34
P36N	-0.818 ± 0.21
P36V	-0.96 ± 0.1
P36G	-0.927 ± 0.086
P36D	-0.893 ± 0.22
P36Q	-1.03 ± 0.31
P36Y	-0.713 ± 0.12
P36H	-0.71 ± 0.18
P36M	-1.06 ± 0.16
P36C	-0.958 ± 0.15
P36S	-1.09 ± 0.16
P36E	-0.283 ± 0.11
P36A	-0.629 ± 0.06
P36K	-0.846 ± 0.079
K29F	-0.446 ± 0.11
K29M	-0.303 ± 0.081
K29V	-0.82 ± 0.097
K29I	-0.954 ± 0.21
K29Y	-1 ± 0.34
K29P	-0.889 ± 0.046
K29E	-0.324 ± 0.079
K29A	-0.237 ± 0.055
K29T	-0.577 ± 0.089

Variant	abundance fitness
K29Q	-0.063 ± 0.042
K29L	-0.343 ± 0.037
K29N	-0.089 ± 0.038
K29S	-0.231 ± 0.053
K29H	-0.224 ± 0.092
K29C	-0.323 ± 0.045
K29G	-0.002 ± 0.038
D35S	-0.691 ± 0.067
D35W	-0.849 ± 0.043
D35Y	-0.906 ± 0.24
D35H	-0.418 ± 0.14
D35A	-0.216 ± 0.081
D35N	-0.979 ± 0.18
D35R	-0.554 ± 0.044
D35K	-0.814 ± 0.078
D35L	-0.623 ± 0.055
D35V	-0.762 ± 0.085
D35G	-0.593 ± 0.048
D35T	-0.84 ± 0.15
D35I	-0.895 ± 0.14
D35P	-0.582 ± 0.12
D35M	-0.734 ± 0.16
D35E	-0.795 ± 0.11
